The values below come from patent US20210032299A1 (Eli Lilly, published 2021).

Starred links: 1 amine or outer side, 2 acyl side, 3 side chain; linkers in the order of their positions; H or OH if unused. Non-standard residues stand in square brackets, D forms with d. Groups on a side chain read outwards from the residue. No end group written: not given here. *: point of attachment. C20 diacid = O=C(O)CCCCCCCCCCCCCCCCCCC(=O)*; C18 diacid = O=C(O)CCCCCCCCCCCCCCCCC(=O)*; αMePhe(2-F) = C[C@](N)(Cc1ccccc1F)C(=O)O; γGlu = O=C(O)[C@H](CCC(=O)[*:2])N[*:1]; αMeF = C[C@](N)(Cc1ccccc1)C(=O)O; 4Pal = N[C@@H](Cc1ccncc1)C(=O)O; AEEA = NCCOCCOCC(=O)O; Aib = CC(C)(N)C(=O)O

In one assay the target is T1, human glucagon receptor (human, UniProt P47871 26-477).
T1 construct: whole, on cells; Assayed as crude membranes of stably transfected HEK293 cells; also called hGcgR; GcgR
T1 sequence (P47871 26-477): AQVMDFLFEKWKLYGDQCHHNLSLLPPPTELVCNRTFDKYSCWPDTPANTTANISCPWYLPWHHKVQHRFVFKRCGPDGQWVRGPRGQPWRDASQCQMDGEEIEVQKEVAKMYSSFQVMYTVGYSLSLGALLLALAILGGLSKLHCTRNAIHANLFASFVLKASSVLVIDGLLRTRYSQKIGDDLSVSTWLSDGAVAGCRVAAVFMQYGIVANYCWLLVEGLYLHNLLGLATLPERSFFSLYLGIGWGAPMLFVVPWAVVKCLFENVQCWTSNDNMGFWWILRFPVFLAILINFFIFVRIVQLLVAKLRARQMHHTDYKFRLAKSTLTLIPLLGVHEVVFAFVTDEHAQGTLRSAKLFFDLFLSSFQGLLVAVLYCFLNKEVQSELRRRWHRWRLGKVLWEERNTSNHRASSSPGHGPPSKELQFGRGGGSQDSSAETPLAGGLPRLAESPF
In words: SPA, displacement of [125I]-Gcg from hGcgR membranes, 0.1% bacitracin. The method in brief:
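Binding buffer: 25 mM HEPES pH 7.4, 2.5 mM CaCl₂, 1 mM MgCl₂, 0.003% Tween-20, protease inhibitors without EDTA. Counted by scintillation after 12 h incubation/settling at room temperature. Four-parameter nonlinear fit; Kᵢ given as geometric mean ± SEM of independent replicates run on different days.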
In general terms: In a radioligand displacement assay an active substance lowers the binding of a labelled ligand.

The target in assay [1] is T2, human glucose-dependent insulinotropic polypeptide (GIP) receptor (human, UniProt P48546 22-466).
T2 construct: whole, on cells; Assayed as crude membranes of stably transfected CHO cells; also called hGIPR; human GIP receptor
T2 sequence (looked up): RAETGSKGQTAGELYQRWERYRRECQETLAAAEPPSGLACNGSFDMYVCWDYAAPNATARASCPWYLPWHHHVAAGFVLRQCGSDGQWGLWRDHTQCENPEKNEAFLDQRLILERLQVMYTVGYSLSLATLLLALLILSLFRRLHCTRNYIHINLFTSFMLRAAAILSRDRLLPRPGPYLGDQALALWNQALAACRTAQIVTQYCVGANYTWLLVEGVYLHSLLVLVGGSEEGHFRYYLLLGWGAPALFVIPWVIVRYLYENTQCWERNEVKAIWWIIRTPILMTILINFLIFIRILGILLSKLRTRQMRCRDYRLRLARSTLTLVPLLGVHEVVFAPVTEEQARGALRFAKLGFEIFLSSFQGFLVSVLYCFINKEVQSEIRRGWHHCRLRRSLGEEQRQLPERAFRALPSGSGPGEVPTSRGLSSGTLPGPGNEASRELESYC
In words: SPA, displacement of [125I]-GIP from hGIPR membranes, 0.1% bacitracin.

A further assay deals with T3, human GLP-1 receptor (human, UniProt P43220 24-463).
T3 construct: whole, on cells; Assayed as crude membranes of stably transfected HEK293 cells; also called hGLP1R; hGLP-1R
In words: SPA, displacement of [125I]-GLP-1 from hGLP-1R membranes, 0.1% bacitracin. The method in brief:
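Binding buffer: 25 mM HEPES pH 7.4, 2.5 mM CaCl₂, 1 mM MgCl₂, 0.1% bacitracin, 0.003% Tween-20, protease inhibitors without EDTA. Four-parameter nonlinear regression; Kᵢ given as geometric mean ± SEM, n = independent replicates run on different days.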

B1: Example 23 (peptide)
peptide: Y[Aib]EGT[αMeF]ISDYSIALDKK([AEEA-AEEA-γGlu-C18 diacid])HQ[Aib]DFVE[4Pal]LLAGGPSSGAPPPS-NH2
modifications: N-terminus assumed
SMILES: CC[C@H](C)[C@H](NC(=O)[C@H](CO)NC(=O)[C@H](Cc1ccc(O)cc1)NC(=O)[C@H](CC(=O)O)NC(=O)[C@H](CO)NC(=O)[C@@H](NC(=O)[C@](C)(Cc1ccccc1)NC(=O)[C@@H](NC(=O)CNC(=O)[C@H](CCC(=O)O)NC(=O)C(C)(C)NC(=O)[C@@H](N)Cc1ccc(O)cc1)[C@@H](C)O)[C@@H](C)CC)C(=O)N[C@@H](C)C(=O)N[C@@H](CC(C)C)C(=O)N[C@@H](CC(=O)O)C(=O)N[C@@H](CCCCN)C(=O)N[C@@H](CCCCNC(=O)COCCOCCNC(=O)COCCOCCNC(=O)CC[C@H](NC(=O)CCCCCCCCCCCCCCCCC(=O)O)C(=O)O)C(=O)N[C@@H](Cc1c[nH]cn1)C(=O)N[C@@H](CCC(N)=O)C(=O)NC(C)(C)C(=O)N[C@@H](CC(=O)O)C(=O)N[C@@H](Cc1ccccc1)C(=O)N[C@H](C(=O)N[C@@H](CCC(=O)O)C(=O)N[C@@H](Cc1ccncc1)C(=O)N[C@@H](CC(C)C)C(=O)N[C@@H](CC(C)C)C(=O)N[C@@H](C)C(=O)NCC(=O)NCC(=O)N1CCC[C@H]1C(=O)N[C@@H](CO)C(=O)N[C@@H](CO)C(=O)NCC(=O)N[C@@H](C)C(=O)N1CCC[C@H]1C(=O)N1CCC[C@H]1C(=O)N1CCC[C@H]1C(=O)N[C@@H](CO)C(N)=O)C(C)C
As for B1, the values for the Ki (with human glucagon receptor; in assay [1]; in the assay with human GLP-1 receptor) were 323 nM, 0.0341 nM and 251 nM, respectively.

B2: Example 38 (peptide)
peptide: Y[Aib]EGT[αMePhe(2-F)]ISDYSIALDKK([AEEA-AEEA-γGlu-C20 diacid])HQ[Aib]DFVE[4Pal]LLETGPSSGAPPPS-NH2
modifications: N-terminus assumed
SMILES: CC[C@H](C)[C@H](NC(=O)[C@H](CO)NC(=O)[C@H](Cc1ccc(O)cc1)NC(=O)[C@H](CC(=O)O)NC(=O)[C@H](CO)NC(=O)[C@@H](NC(=O)[C@](C)(Cc1ccccc1F)NC(=O)[C@@H](NC(=O)CNC(=O)[C@H](CCC(=O)O)NC(=O)C(C)(C)NC(=O)[C@@H](N)Cc1ccc(O)cc1)[C@@H](C)O)[C@@H](C)CC)C(=O)N[C@@H](C)C(=O)N[C@@H](CC(C)C)C(=O)N[C@@H](CC(=O)O)C(=O)N[C@@H](CCCCN)C(=O)N[C@@H](CCCCNC(=O)COCCOCCNC(=O)COCCOCCNC(=O)CC[C@H](NC(=O)CCCCCCCCCCCCCCCCCCC(=O)O)C(=O)O)C(=O)N[C@@H](Cc1c[nH]cn1)C(=O)N[C@@H](CCC(N)=O)C(=O)NC(C)(C)C(=O)N[C@@H](CC(=O)O)C(=O)N[C@@H](Cc1ccccc1)C(=O)N[C@H](C(=O)N[C@@H](CCC(=O)O)C(=O)N[C@@H](Cc1ccncc1)C(=O)N[C@@H](CC(C)C)C(=O)N[C@@H](CC(C)C)C(=O)N[C@@H](CCC(=O)O)C(=O)N[C@H](C(=O)NCC(=O)N1CCC[C@H]1C(=O)N[C@@H](CO)C(=O)N[C@@H](CO)C(=O)NCC(=O)N[C@@H](C)C(=O)N1CCC[C@H]1C(=O)N1CCC[C@H]1C(=O)N1CCC[C@H]1C(=O)N[C@@H](CO)C(N)=O)[C@@H](C)O)C(C)C
For B2, the Ki with human glucagon receptor came out at 182 nM; in assay [1], 0.0588 nM; with human GLP-1 receptor, 776 nM.

What is called Ki is the equilibrium dissociation constant of an inhibitor or competing ligand from its target.
